Measured values taken from patent publication US20090062190.

Test system: LITAF + STAT6(B) complex (Homo sapiens)
Assay: cell_activity
Settings: TNF promoter-luciferase in U2OS cells; inhibited by LITAF shRNA

LITAF + STAT6(B) complex (Homo sapiens), sequence (chain, as listed by the source, chain 1 of 2): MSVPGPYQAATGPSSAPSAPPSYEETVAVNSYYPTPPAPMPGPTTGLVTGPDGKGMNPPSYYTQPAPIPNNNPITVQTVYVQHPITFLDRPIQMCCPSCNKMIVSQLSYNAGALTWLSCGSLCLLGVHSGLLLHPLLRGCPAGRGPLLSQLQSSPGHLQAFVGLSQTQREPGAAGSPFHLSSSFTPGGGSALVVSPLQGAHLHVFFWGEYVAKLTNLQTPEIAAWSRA
LITAF + STAT6(B) complex (Homo sapiens), sequence (chain, as listed by the source, chain 2 of 2): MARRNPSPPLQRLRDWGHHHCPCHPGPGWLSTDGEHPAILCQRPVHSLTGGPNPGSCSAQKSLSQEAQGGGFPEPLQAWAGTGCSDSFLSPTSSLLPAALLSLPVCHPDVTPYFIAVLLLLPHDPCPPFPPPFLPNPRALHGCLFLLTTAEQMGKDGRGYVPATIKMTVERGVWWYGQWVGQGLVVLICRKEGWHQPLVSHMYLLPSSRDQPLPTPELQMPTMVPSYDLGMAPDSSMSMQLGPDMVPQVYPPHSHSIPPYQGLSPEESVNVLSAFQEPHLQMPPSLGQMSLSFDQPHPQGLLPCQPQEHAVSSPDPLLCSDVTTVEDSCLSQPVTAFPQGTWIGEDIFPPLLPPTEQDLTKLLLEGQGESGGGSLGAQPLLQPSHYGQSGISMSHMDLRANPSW

hTNF-alpha promoter DNA probe
activity (fold vs LITAF alone): 1.5
